Patent publication US20050249730A1 (PIERRE FABRE MEDICAMENT, published 2005)

Molecular target: T1, insulin receptor isoform A (IR-A) from lysates of R-/IR-A cells (UniProt P06213-2 28-1370)
T1 construct: Whole receptor in the lysate of R- fibroblasts stably transfected with IR-A cDNA
Assay: immunoprecipitation from R-/IR-A cell lysate, SDS-PAGE, immunoblot with anti-IR beta-subunit

T1 sequence (P06213 other isoform, or with tags, fused parts or gaps limits assumed): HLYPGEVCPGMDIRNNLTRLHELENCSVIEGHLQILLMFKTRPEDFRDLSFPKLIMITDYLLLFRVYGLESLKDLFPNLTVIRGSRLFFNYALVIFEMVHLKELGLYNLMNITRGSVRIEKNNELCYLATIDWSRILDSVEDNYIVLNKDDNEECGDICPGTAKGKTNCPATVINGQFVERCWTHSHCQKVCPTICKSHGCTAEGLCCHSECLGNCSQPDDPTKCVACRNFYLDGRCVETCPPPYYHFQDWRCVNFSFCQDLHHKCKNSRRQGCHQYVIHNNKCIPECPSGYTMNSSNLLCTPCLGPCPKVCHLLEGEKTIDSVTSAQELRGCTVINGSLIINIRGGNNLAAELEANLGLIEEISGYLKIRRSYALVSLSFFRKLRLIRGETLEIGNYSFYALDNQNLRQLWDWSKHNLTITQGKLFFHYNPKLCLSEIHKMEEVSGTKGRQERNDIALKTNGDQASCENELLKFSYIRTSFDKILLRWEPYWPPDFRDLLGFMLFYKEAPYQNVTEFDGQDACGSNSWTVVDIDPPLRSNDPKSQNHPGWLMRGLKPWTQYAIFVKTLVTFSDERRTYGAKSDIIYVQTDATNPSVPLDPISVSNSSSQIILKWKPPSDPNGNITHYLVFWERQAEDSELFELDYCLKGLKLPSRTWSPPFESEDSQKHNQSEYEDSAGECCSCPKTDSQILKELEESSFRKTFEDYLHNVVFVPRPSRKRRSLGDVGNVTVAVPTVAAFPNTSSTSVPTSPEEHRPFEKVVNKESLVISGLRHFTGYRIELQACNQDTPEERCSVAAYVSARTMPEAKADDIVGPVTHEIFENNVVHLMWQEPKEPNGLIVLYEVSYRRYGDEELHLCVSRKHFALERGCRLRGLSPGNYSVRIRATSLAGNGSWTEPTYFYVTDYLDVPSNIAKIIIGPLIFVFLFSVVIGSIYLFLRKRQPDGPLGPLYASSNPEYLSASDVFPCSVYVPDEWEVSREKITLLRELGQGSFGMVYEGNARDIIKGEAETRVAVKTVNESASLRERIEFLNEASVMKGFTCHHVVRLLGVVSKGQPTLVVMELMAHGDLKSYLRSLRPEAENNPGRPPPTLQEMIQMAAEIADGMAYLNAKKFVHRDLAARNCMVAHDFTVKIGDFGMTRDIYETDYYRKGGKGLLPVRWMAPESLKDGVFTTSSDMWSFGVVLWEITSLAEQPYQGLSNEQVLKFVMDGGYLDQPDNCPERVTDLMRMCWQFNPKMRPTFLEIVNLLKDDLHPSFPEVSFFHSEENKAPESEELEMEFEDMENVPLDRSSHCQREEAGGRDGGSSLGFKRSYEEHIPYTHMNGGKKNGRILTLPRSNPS

B1: humanized antibody h7C10 (humanized form 1 of 7C10: humanized 7C10 VH 1 with humanized 7C10 VL 1) (antibody, V domains shown)
VH: QVQLQESGPGLVKPSETLSLTCTVSGYSITGGYLWNWIRQPPGKGLEWMGYISYDGTNNYKPSLKDRITISRDTSKNQFSLKLSSVTAADTAVYYCARYGRVFFDYWGQGTLVTVSS
VL: DVVMTQSPLSLPVTPGEPASISCRSSQSIVHSNGNTYLQWYLQKPGQSPQLLIYKVSNRLYGVPDRFSGSGSGTDFTLKISRVEAEDVGVYYCFQGSHVPWTFGQGTKVEIK
notes: Human IgG1/kappa; also called 7H2HM; A2CHM
Q: Does B1 bind?
A: no binding
